# In IntAct's records for PubMed 35512704:
# B1: Speckle-type POZ protein (Homo sapiens), O43791 (parent)
# chain: MSRVPSPPPPAEMSSGPVAESWCYTQIKVVKFSYMWTINNFSFCREEMGEVIKSSTFSSGANDKLKWCLRVNPKGLDEESKDYLSLYLLLVSCPKSEVRAKFKFSILNAKGEETKAMESQRAYRFVQGKDWGFKKFIRRDFLLDEANGLLPDDKLTLFCEVSVVQDSVNISGQNTMNMVKVPECRLADELGGLWENSRFTDCCLCVAGQEFQAHKAILAARSPVFSAMFEHEMEESKKNRVEINDVEPEVFKEMMCFIYTGKAPNLDKMADDLLAAADKYALERLKVMCEDALCSNLSVENAAEILILADLHSADQLKTQAVDFINYHASDVLETSGWKSMVVSHPHLVAEAYRSLASAQCPFLGPPRKRLKQS
# Variants of: B1
# Details: with dll3_human DLL3, Q9NYJ7
row,effect of a mutation on the interaction,Variant
1,with no effect,MSRVPSPPPPAEMSSGPVAESWCYTQIKVVKFSYMWTINNFSFCREEMGEVIKSSTFSSGANDKLKWCLRVNPKGLDEESKDYLSLCLLLVSCPKSEVRAKFKFSILNAKGEETKAMESQRAYRFVQGKDWGFKKFIRRDFLLDEANGLLPDDKLTLFCEVSVVQDSVNISGQNTMNMVKVPECRLADELGGLWENSRFTDCCLCVAGQEFQAHKAILAARSPVFSAMFEHEMEESKKNRVEINDVEPEVFKEMMCFIYTGKAPNLDKMADDLLAAADKYALERLKVMCEDALCSNLSVENAAEILILADLHSADQLKTQAVDFINYHASDVLETSGWKSMVVSHPHLVAEAYRSLASAQCPFLGPPRKRLKQS [Y87C]

# Variants of: B1
# Details: with duox2_human DUOX2, Q9NRD8
row,effect of a mutation on the interaction,Variant
1,with no effect,MSRVPSPPPPAEMSSGPVAESWCYTQIKVVKFSYMWTINNFSFCREEMGEVIKSSTFSSGANDKLKWCLRVNPKGLDEESKDYLSLCLLLVSCPKSEVRAKFKFSILNAKGEETKAMESQRAYRFVQGKDWGFKKFIRRDFLLDEANGLLPDDKLTLFCEVSVVQDSVNISGQNTMNMVKVPECRLADELGGLWENSRFTDCCLCVAGQEFQAHKAILAARSPVFSAMFEHEMEESKKNRVEINDVEPEVFKEMMCFIYTGKAPNLDKMADDLLAAADKYALERLKVMCEDALCSNLSVENAAEILILADLHSADQLKTQAVDFINYHASDVLETSGWKSMVVSHPHLVAEAYRSLASAQCPFLGPPRKRLKQS [Y87C]

# Variants of: B1
# Details: with e2f1_human E2F1, Q01094
# e2f1_human E2F1, Q01094, sequence (Q01094 whole entry): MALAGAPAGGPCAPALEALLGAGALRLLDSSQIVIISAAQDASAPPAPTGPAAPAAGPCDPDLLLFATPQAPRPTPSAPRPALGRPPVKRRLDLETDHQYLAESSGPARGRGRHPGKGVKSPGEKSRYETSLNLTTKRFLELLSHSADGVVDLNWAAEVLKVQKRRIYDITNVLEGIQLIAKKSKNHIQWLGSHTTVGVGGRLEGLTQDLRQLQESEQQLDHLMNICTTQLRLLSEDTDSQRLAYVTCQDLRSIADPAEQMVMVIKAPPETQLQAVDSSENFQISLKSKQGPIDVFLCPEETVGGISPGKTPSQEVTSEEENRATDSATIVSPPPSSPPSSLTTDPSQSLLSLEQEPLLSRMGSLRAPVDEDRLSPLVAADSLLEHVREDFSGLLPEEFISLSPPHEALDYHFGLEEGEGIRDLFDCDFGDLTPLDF
row,effect of a mutation on the interaction,Variant
1,with no effect,MSRVPSPPPPAEMSSGPVAESWCYTQIKVVKFSYMWTINNFSFCREEMGEVIKSSTFSSGANDKLKWCLRVNPKGLDEESKDYLSLCLLLVSCPKSEVRAKFKFSILNAKGEETKAMESQRAYRFVQGKDWGFKKFIRRDFLLDEANGLLPDDKLTLFCEVSVVQDSVNISGQNTMNMVKVPECRLADELGGLWENSRFTDCCLCVAGQEFQAHKAILAARSPVFSAMFEHEMEESKKNRVEINDVEPEVFKEMMCFIYTGKAPNLDKMADDLLAAADKYALERLKVMCEDALCSNLSVENAAEILILADLHSADQLKTQAVDFINYHASDVLETSGWKSMVVSHPHLVAEAYRSLASAQCPFLGPPRKRLKQS [Y87C]

# Variants of: B1
# Details: with e2f2_human E2F2, Q14209
# e2f2_human E2F2, Q14209, sequence (Q14209 whole entry): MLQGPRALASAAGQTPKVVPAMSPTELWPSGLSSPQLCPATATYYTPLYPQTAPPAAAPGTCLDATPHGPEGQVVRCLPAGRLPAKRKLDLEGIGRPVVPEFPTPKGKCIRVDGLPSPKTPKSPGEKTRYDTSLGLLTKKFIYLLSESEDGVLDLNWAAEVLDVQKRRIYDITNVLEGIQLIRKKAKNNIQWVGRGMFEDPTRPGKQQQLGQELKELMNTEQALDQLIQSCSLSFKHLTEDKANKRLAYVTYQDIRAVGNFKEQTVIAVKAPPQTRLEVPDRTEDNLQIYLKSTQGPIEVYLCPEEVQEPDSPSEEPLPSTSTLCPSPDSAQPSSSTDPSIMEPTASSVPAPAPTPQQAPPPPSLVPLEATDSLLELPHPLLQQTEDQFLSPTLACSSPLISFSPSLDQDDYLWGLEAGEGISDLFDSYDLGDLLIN
row,effect of a mutation on the interaction,Variant
1,with no effect,MSRVPSPPPPAEMSSGPVAESWCYTQIKVVKFSYMWTINNFSFCREEMGEVIKSSTFSSGANDKLKWCLRVNPKGLDEESKDYLSLCLLLVSCPKSEVRAKFKFSILNAKGEETKAMESQRAYRFVQGKDWGFKKFIRRDFLLDEANGLLPDDKLTLFCEVSVVQDSVNISGQNTMNMVKVPECRLADELGGLWENSRFTDCCLCVAGQEFQAHKAILAARSPVFSAMFEHEMEESKKNRVEINDVEPEVFKEMMCFIYTGKAPNLDKMADDLLAAADKYALERLKVMCEDALCSNLSVENAAEILILADLHSADQLKTQAVDFINYHASDVLETSGWKSMVVSHPHLVAEAYRSLASAQCPFLGPPRKRLKQS [Y87C]

# Variants of: B1
# Details: with e2f3_human E2F3, O00716
# e2f3_human E2F3, O00716, sequence (O00716 whole entry): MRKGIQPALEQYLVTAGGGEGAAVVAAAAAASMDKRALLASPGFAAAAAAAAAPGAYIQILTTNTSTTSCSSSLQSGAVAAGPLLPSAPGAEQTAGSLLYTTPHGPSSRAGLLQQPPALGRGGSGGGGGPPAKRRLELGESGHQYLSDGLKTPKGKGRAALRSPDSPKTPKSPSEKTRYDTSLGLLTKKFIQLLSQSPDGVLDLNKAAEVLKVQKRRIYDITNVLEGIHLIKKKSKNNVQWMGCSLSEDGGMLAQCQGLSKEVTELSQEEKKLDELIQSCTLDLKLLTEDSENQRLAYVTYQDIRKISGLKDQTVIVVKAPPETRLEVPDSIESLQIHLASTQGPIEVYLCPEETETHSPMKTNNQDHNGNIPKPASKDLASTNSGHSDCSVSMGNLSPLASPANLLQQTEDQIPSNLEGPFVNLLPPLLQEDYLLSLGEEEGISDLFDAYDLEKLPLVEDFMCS
row,effect of a mutation on the interaction,Variant
1,with no effect,MSRVPSPPPPAEMSSGPVAESWCYTQIKVVKFSYMWTINNFSFCREEMGEVIKSSTFSSGANDKLKWCLRVNPKGLDEESKDYLSLCLLLVSCPKSEVRAKFKFSILNAKGEETKAMESQRAYRFVQGKDWGFKKFIRRDFLLDEANGLLPDDKLTLFCEVSVVQDSVNISGQNTMNMVKVPECRLADELGGLWENSRFTDCCLCVAGQEFQAHKAILAARSPVFSAMFEHEMEESKKNRVEINDVEPEVFKEMMCFIYTGKAPNLDKMADDLLAAADKYALERLKVMCEDALCSNLSVENAAEILILADLHSADQLKTQAVDFINYHASDVLETSGWKSMVVSHPHLVAEAYRSLASAQCPFLGPPRKRLKQS [Y87C]

# Variants of: B1
# Details: with e2f5_human E2F5, Q15329
# e2f5_human E2F5, Q15329, sequence (Q15329 whole entry): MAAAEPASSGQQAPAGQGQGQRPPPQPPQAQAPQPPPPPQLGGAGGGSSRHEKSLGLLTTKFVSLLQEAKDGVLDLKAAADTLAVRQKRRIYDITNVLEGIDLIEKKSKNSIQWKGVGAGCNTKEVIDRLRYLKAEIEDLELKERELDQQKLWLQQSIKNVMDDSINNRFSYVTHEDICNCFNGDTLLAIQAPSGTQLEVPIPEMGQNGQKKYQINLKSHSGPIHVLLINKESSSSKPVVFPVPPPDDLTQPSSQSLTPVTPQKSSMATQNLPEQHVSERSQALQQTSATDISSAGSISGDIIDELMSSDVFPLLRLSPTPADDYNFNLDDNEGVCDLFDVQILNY
row,effect of a mutation on the interaction,Variant
1,with no effect,MSRVPSPPPPAEMSSGPVAESWCYTQIKVVKFSYMWTINNFSFCREEMGEVIKSSTFSSGANDKLKWCLRVNPKGLDEESKDYLSLCLLLVSCPKSEVRAKFKFSILNAKGEETKAMESQRAYRFVQGKDWGFKKFIRRDFLLDEANGLLPDDKLTLFCEVSVVQDSVNISGQNTMNMVKVPECRLADELGGLWENSRFTDCCLCVAGQEFQAHKAILAARSPVFSAMFEHEMEESKKNRVEINDVEPEVFKEMMCFIYTGKAPNLDKMADDLLAAADKYALERLKVMCEDALCSNLSVENAAEILILADLHSADQLKTQAVDFINYHASDVLETSGWKSMVVSHPHLVAEAYRSLASAQCPFLGPPRKRLKQS [Y87C]

# Variants of: B1
# Details: with e2f6_human E2F6, O75461
# e2f6_human E2F6, O75461, sequence (O75461 whole entry): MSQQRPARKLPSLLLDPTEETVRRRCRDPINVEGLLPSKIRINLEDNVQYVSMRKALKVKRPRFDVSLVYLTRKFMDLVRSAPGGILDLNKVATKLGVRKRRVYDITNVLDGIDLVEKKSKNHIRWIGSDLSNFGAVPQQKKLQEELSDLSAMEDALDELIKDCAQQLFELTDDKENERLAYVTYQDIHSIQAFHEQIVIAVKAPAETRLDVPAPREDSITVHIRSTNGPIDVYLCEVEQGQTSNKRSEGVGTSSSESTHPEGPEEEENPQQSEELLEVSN
row,effect of a mutation on the interaction,Variant
1,with no effect,MSRVPSPPPPAEMSSGPVAESWCYTQIKVVKFSYMWTINNFSFCREEMGEVIKSSTFSSGANDKLKWCLRVNPKGLDEESKDYLSLCLLLVSCPKSEVRAKFKFSILNAKGEETKAMESQRAYRFVQGKDWGFKKFIRRDFLLDEANGLLPDDKLTLFCEVSVVQDSVNISGQNTMNMVKVPECRLADELGGLWENSRFTDCCLCVAGQEFQAHKAILAARSPVFSAMFEHEMEESKKNRVEINDVEPEVFKEMMCFIYTGKAPNLDKMADDLLAAADKYALERLKVMCEDALCSNLSVENAAEILILADLHSADQLKTQAVDFINYHASDVLETSGWKSMVVSHPHLVAEAYRSLASAQCPFLGPPRKRLKQS [Y87C]

# Variants of: B1
# Details: with e2f8_human E2F8, A0AVK6
# e2f8_human E2F8, A0AVK6, sequence (A0AVK6 whole entry): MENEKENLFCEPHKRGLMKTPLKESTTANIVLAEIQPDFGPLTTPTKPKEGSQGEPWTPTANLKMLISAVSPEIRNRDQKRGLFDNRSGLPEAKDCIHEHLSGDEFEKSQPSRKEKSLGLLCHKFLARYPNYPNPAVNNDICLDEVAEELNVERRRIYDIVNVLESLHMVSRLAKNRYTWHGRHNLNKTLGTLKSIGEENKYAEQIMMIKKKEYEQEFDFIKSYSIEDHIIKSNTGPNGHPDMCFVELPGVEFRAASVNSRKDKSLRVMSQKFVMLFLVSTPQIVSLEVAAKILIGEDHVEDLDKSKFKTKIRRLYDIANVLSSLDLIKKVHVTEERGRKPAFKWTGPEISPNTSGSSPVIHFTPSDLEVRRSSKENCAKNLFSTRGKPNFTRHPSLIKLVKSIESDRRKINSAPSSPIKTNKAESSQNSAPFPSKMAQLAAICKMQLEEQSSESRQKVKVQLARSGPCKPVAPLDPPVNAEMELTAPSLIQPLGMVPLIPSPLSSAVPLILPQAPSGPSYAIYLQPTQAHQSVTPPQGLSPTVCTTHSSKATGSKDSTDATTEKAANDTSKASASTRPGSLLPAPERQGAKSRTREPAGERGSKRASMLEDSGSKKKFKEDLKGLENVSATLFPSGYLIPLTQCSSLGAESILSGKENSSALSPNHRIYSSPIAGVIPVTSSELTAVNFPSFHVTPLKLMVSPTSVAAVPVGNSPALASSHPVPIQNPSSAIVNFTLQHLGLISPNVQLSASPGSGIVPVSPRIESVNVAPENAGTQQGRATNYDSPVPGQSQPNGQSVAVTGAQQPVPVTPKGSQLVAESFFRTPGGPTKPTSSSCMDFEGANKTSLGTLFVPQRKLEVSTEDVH
row,effect of a mutation on the interaction,Variant
1,with no effect,MSRVPSPPPPAEMSSGPVAESWCYTQIKVVKFSYMWTINNFSFCREEMGEVIKSSTFSSGANDKLKWCLRVNPKGLDEESKDYLSLCLLLVSCPKSEVRAKFKFSILNAKGEETKAMESQRAYRFVQGKDWGFKKFIRRDFLLDEANGLLPDDKLTLFCEVSVVQDSVNISGQNTMNMVKVPECRLADELGGLWENSRFTDCCLCVAGQEFQAHKAILAARSPVFSAMFEHEMEESKKNRVEINDVEPEVFKEMMCFIYTGKAPNLDKMADDLLAAADKYALERLKVMCEDALCSNLSVENAAEILILADLHSADQLKTQAVDFINYHASDVLETSGWKSMVVSHPHLVAEAYRSLASAQCPFLGPPRKRLKQS [Y87C]

# Variants of: B1
# Details: with if4e_human EIF4E
row,effect of a mutation on the interaction,Variant
1,with no effect,MSRVPSPPPPAEMSSGPVAESWCYTQIKVVKFSYMWTINNFSFCREEMGEVIKSSTFSSGANDKLKWCLRVNPKGLDEESKDYLSLCLLLVSCPKSEVRAKFKFSILNAKGEETKAMESQRAYRFVQGKDWGFKKFIRRDFLLDEANGLLPDDKLTLFCEVSVVQDSVNISGQNTMNMVKVPECRLADELGGLWENSRFTDCCLCVAGQEFQAHKAILAARSPVFSAMFEHEMEESKKNRVEINDVEPEVFKEMMCFIYTGKAPNLDKMADDLLAAADKYALERLKVMCEDALCSNLSVENAAEILILADLHSADQLKTQAVDFINYHASDVLETSGWKSMVVSHPHLVAEAYRSLASAQCPFLGPPRKRLKQS [Y87C]

# Variants of: B1
# Details: with epha7_human EPHA7, Q15375
row,effect of a mutation on the interaction,Variant
1,with no effect,MSRVPSPPPPAEMSSGPVAESWCYTQIKVVKFSYMWTINNFSFCREEMGEVIKSSTFSSGANDKLKWCLRVNPKGLDEESKDYLSLCLLLVSCPKSEVRAKFKFSILNAKGEETKAMESQRAYRFVQGKDWGFKKFIRRDFLLDEANGLLPDDKLTLFCEVSVVQDSVNISGQNTMNMVKVPECRLADELGGLWENSRFTDCCLCVAGQEFQAHKAILAARSPVFSAMFEHEMEESKKNRVEINDVEPEVFKEMMCFIYTGKAPNLDKMADDLLAAADKYALERLKVMCEDALCSNLSVENAAEILILADLHSADQLKTQAVDFINYHASDVLETSGWKSMVVSHPHLVAEAYRSLASAQCPFLGPPRKRLKQS [Y87C]

# Variants of: B1
# Details: with ephb1_human EPHB1, P54762
# ephb1_human EPHB1, P54762, sequence (P54762 whole entry): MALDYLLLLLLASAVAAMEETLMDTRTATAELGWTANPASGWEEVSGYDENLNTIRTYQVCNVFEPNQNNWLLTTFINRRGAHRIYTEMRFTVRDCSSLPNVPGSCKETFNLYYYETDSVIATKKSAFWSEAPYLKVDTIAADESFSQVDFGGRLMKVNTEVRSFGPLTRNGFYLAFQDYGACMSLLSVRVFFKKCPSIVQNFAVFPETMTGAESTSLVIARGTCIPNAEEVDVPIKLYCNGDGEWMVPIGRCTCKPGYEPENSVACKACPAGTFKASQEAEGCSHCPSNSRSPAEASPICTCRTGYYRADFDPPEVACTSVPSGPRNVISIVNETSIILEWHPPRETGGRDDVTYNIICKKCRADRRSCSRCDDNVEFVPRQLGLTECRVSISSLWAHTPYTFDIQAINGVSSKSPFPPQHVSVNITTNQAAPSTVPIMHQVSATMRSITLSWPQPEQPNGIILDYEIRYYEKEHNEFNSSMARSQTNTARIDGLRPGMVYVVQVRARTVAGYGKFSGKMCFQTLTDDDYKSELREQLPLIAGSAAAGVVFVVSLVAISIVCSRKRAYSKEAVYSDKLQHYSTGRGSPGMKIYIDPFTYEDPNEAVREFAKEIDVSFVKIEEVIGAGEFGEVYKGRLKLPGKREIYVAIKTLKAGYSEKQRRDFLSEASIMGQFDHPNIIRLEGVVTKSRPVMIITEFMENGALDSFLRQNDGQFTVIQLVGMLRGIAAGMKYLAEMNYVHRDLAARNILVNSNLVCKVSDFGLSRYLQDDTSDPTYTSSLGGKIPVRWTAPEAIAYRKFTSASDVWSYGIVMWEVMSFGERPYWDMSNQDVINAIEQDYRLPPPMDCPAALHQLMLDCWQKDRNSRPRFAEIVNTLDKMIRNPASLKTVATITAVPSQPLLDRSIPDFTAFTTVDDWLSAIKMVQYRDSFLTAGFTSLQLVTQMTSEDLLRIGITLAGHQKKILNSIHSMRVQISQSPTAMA
row,effect of a mutation on the interaction,Variant
1,with no effect,MSRVPSPPPPAEMSSGPVAESWCYTQIKVVKFSYMWTINNFSFCREEMGEVIKSSTFSSGANDKLKWCLRVNPKGLDEESKDYLSLCLLLVSCPKSEVRAKFKFSILNAKGEETKAMESQRAYRFVQGKDWGFKKFIRRDFLLDEANGLLPDDKLTLFCEVSVVQDSVNISGQNTMNMVKVPECRLADELGGLWENSRFTDCCLCVAGQEFQAHKAILAARSPVFSAMFEHEMEESKKNRVEINDVEPEVFKEMMCFIYTGKAPNLDKMADDLLAAADKYALERLKVMCEDALCSNLSVENAAEILILADLHSADQLKTQAVDFINYHASDVLETSGWKSMVVSHPHLVAEAYRSLASAQCPFLGPPRKRLKQS [Y87C]

# Variants of: B1
# Details: with erbb3_human ERBB3, P21860
row,effect of a mutation on the interaction,Variant
1,with no effect,MSRVPSPPPPAEMSSGPVAESWCYTQIKVVKFSYMWTINNFSFCREEMGEVIKSSTFSSGANDKLKWCLRVNPKGLDEESKDYLSLCLLLVSCPKSEVRAKFKFSILNAKGEETKAMESQRAYRFVQGKDWGFKKFIRRDFLLDEANGLLPDDKLTLFCEVSVVQDSVNISGQNTMNMVKVPECRLADELGGLWENSRFTDCCLCVAGQEFQAHKAILAARSPVFSAMFEHEMEESKKNRVEINDVEPEVFKEMMCFIYTGKAPNLDKMADDLLAAADKYALERLKVMCEDALCSNLSVENAAEILILADLHSADQLKTQAVDFINYHASDVLETSGWKSMVVSHPHLVAEAYRSLASAQCPFLGPPRKRLKQS [Y87C]

# Variants of: B1
# Details: with erbb4_human ERBB4, Q15303
row,effect of a mutation on the interaction,Variant
1,with no effect,MSRVPSPPPPAEMSSGPVAESWCYTQIKVVKFSYMWTINNFSFCREEMGEVIKSSTFSSGANDKLKWCLRVNPKGLDEESKDYLSLCLLLVSCPKSEVRAKFKFSILNAKGEETKAMESQRAYRFVQGKDWGFKKFIRRDFLLDEANGLLPDDKLTLFCEVSVVQDSVNISGQNTMNMVKVPECRLADELGGLWENSRFTDCCLCVAGQEFQAHKAILAARSPVFSAMFEHEMEESKKNRVEINDVEPEVFKEMMCFIYTGKAPNLDKMADDLLAAADKYALERLKVMCEDALCSNLSVENAAEILILADLHSADQLKTQAVDFINYHASDVLETSGWKSMVVSHPHLVAEAYRSLASAQCPFLGPPRKRLKQS [Y87C]

# Variants of: B1
# Details: with esr1_human ESR1, P03372
# esr1_human ESR1, P03372, sequence (P03372 whole entry): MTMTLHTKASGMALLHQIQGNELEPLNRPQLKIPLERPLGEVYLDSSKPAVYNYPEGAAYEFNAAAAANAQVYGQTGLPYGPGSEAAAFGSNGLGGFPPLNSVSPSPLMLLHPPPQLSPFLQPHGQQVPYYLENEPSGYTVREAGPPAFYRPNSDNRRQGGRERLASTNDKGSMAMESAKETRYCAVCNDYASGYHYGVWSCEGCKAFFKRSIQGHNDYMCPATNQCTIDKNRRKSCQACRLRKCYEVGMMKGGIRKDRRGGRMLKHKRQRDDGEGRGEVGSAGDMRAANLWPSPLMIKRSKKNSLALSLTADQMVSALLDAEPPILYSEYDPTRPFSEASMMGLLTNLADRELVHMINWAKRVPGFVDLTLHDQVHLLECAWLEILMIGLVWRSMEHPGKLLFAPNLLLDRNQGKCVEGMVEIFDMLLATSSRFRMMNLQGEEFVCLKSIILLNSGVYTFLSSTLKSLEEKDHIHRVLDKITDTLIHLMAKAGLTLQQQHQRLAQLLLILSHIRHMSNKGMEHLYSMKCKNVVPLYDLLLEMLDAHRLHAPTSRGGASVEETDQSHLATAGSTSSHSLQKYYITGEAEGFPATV
row,effect of a mutation on the interaction,Variant
1,with no effect,MSRVPSPPPPAEMSSGPVAESWCYTQIKVVKFSYMWTINNFSFCREEMGEVIKSSTFSSGANDKLKWCLRVNPKGLDEESKDYLSLCLLLVSCPKSEVRAKFKFSILNAKGEETKAMESQRAYRFVQGKDWGFKKFIRRDFLLDEANGLLPDDKLTLFCEVSVVQDSVNISGQNTMNMVKVPECRLADELGGLWENSRFTDCCLCVAGQEFQAHKAILAARSPVFSAMFEHEMEESKKNRVEINDVEPEVFKEMMCFIYTGKAPNLDKMADDLLAAADKYALERLKVMCEDALCSNLSVENAAEILILADLHSADQLKTQAVDFINYHASDVLETSGWKSMVVSHPHLVAEAYRSLASAQCPFLGPPRKRLKQS [Y87C]

# Variants of: B1
# Details: with etv1_human ETV1, P50549
# etv1_human ETV1, P50549, sequence (P50549 whole entry): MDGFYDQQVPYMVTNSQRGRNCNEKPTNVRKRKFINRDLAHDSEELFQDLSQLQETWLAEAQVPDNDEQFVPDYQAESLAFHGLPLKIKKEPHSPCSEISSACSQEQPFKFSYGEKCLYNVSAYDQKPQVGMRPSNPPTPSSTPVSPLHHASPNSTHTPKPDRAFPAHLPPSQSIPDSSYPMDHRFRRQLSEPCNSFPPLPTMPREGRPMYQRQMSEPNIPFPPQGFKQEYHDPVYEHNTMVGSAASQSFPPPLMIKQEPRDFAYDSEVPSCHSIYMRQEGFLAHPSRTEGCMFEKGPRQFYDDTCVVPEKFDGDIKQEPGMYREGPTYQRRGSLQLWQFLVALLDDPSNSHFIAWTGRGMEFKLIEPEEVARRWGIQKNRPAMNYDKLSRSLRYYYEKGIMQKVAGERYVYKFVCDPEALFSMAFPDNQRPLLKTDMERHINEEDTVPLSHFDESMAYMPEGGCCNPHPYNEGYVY
row,effect of a mutation on the interaction,Variant
1,with no effect,MSRVPSPPPPAEMSSGPVAESWCYTQIKVVKFSYMWTINNFSFCREEMGEVIKSSTFSSGANDKLKWCLRVNPKGLDEESKDYLSLCLLLVSCPKSEVRAKFKFSILNAKGEETKAMESQRAYRFVQGKDWGFKKFIRRDFLLDEANGLLPDDKLTLFCEVSVVQDSVNISGQNTMNMVKVPECRLADELGGLWENSRFTDCCLCVAGQEFQAHKAILAARSPVFSAMFEHEMEESKKNRVEINDVEPEVFKEMMCFIYTGKAPNLDKMADDLLAAADKYALERLKVMCEDALCSNLSVENAAEILILADLHSADQLKTQAVDFINYHASDVLETSGWKSMVVSHPHLVAEAYRSLASAQCPFLGPPRKRLKQS [Y87C]
